# Columns and labels:
# Δ42PD1 [1] = molecular target: T1, Δ42PD1 (human); assay: flow cytometry on 293T-Δ42PD1 cells, antibody 10 ng/ml, second anti-human Fc antibody
# T1 construct: whole, on cells
# From the text: Human IgG1 isotype was used as a negative control.
# To exploit the therapeutic activities of CH101 variants, we made various modifications in the constant regions of the chimeric version or humanized version of CH101, thus resulting a serial of CH101 humanized antibodies, including CH101-huIgG1(N297A), CH101-huIgG1(L/S), CH101-huIgG4, huCH101-IgG1, huCH101-IgG4, CH101-huIgG1 (chimeric CH101). The original CH101 (parental, fully murine) was included as the positive control for these humanized versions. […] All humanized antibodies could recognize Δ42PD1 expressed on the cell surface but with different specificity (FIGS. 3A-3I). The detailed statistical analysis elucidated the activity of versions of humanized antibodies in interacting with Δ42PD1 at different specificity and sensitivity (Table 1). […] Due to the limited expression of chimeric versions of CH101 with Fc engineering, including CH101-huIgG1(N297A), CH101-huIgG1(L/S) and CH101-huIgG4, the amount of these antibody was insufficient for fluorescence labelling.
# Δ42PD1 [2] = molecular target: T1, Δ42PD1; assay: flow cytometry on 293T-Δ42PD1 cells, antibody 10 ng/ml; average ± deviation
# PD-1-GFP = molecular target: T2, PD-1-GFP (UniProt Q15116 25-288); assay: flow cytometry on RPMI8866 B cells transfected with PD-1-GFP
# T2 construct: whole, on cells; Expressed from a PCDH plasmid in RPMI8866 B cells by electroporation; also called PD-1 expressed on human B cells; not shown: GFP
# T2 sequence (Q15116 25-288): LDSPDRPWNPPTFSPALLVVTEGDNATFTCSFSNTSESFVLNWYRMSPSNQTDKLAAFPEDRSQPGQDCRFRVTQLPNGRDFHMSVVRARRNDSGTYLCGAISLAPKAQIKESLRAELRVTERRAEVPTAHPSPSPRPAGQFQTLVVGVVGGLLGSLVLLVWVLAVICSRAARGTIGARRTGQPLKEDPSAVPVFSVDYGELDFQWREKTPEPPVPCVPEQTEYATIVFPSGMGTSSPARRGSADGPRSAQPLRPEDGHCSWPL
# Description: To test the specificity of anti-Δ42PD1 antibody CH34 as compared with the anti-PD1 antibody (EH12.2H7), RPMI8866 B cells are transfected with a plasmid PCDH expressing Δ42PD-1-GFP, PD-1-GFP or GFP along by Neon electroporation system. Untransfected RPMI8866 B cells are included as controls. Two days after the transfection, the transfection efficiency is determined by flow cytometry analysis on GFP (upper panel). The specificity of anti-Δ42PD1 antibody CH34 and anti-PD1 antibody EH12.2H7 is measured by analysis on PD-1 and Δ42PD1 expression (lower panel).
# PD1 = molecular target: T3, PD1 (human, UniProt Q15116 25-288); assay: flow cytometry on 293T cells transfected with a PCDH plasmid expressing PD-1
# T3 construct: whole, on cells; also called CD279
# T3 sequence (Q15116 25-288): as above
# Description: Untransfected cells are included as controls. Two days after the transfection, the specificity of anti-Δ42PD1 antibody CH34 and anti-PD1 antibody EH12.2H7 is measured by analysis on PD-1 and Δ42PD1 expression.
Binder,293T-Δ42PD1 (%) (Δ42PD1 [1]),293T-Δ42PD1 (%) (Δ42PD1 [2]),also measured
"CH101-huIgG1(N297A) (antibody, Detected with a second anti-human Fc antibody) heavy: not shown light: DVVMTQTPLNLSVTFGQPVSISCTSSQSLLDRDGETFMNWLFQRPGQSPKRLIYLVSKLDFGVPDRFTGSGSGTDFTLKISRVEAEDLGIYYCWQGTHFPLTFGGGTKLEIKRTVAAPSVFIFPPSDEQLKSGTASVVCLLNNFYPREAKVQWKVDNALQSGNSQESVTEQDSKDSTYSLSSTLTLSKADYEKHKVYACEVTHQGLSSPVTKSFNRGEC",68.3%,–,–
"CH101-huIgG1(L/S) (antibody, Detected with a second anti-human Fc antibody; not shown: human IgG1 constant region with a modification printed only as '(L/S)') heavy: EVQLEESGPDLVKPSQSLSLTCTVTGYSITSGFAWHWLRQFPGNRLEWMGYIHYSGSTNYNPSLKSRISITRDTSKNQFFLQLNSVTTEDTATFYCARSDFWGQGTFVTVSS light: DVVMTQTPLNLSVTFGQPVSISCTSSQSLLDRDGETFMNWLFQRPGQSPKRLIYLVSKLDFGVPDRFTGSGSGTDFTLKISRVEAEDLGIYYCWQGTHFPLTFGGGTKLEIKRTVAAPSVFIFPPSDEQLKSGTASVVCLLNNFYPREAKVQWKVDNALQSGNSQESVTEQDSKDSTYSLSSTLTLSKADYEKHKVYACEVTHQGLSSPVTKSFNRGEC",65.7%,–,–
"CH101-huIgG1 (antibody, also called chimeric CH101; CH101-IgG1) heavy: not shown light: DVVMTQTPLNLSVTFGQPVSISCTSSQSLLDRDGETFMNWLFQRPGQSPKRLIYLVSKLDFGVPDRFTGSGSGTDFTLKISRVEAEDLGIYYCWQGTHFPLTFGGGTKLEIKRTVAAPSVFIFPPSDEQLKSGTASVVCLLNNFYPREAKVQWKVDNALQSGNSQESVTEQDSKDSTYSLSSTLTLSKADYEKHKVYACEVTHQGLSSPVTKSFNRGEC",–,70.1%,–
"CH101-huIgG4 (antibody, Chimeric CH101 on human IgG4; Detected with a second anti-human Fc antibody; also called CH101-IgG4) heavy: not shown light: DVVMTQTPLNLSVTFGQPVSISCTSSQSLLDRDGETFMNWLFQRPGQSPKRLIYLVSKLDFGVPDRFTGSGSGTDFTLKISRVEAEDLGIYYCWQGTHFPLTFGGGTKLEIKRTVAAPSVFIFPPSDEQLKSGTASVVCLLNNFYPREAKVQWKVDNALQSGNSQESVTEQDSKDSTYSLSSTLTLSKADYEKHKVYACEVTHQGLSSPVTKSFNRGEC",62.8%,–,–
"murine CH101 (antibody, V domains shown, Hybridoma-derived, fully murine monoclonal antibody; a mouse IgG1 control was used beside it in vivo; also called parental murine CH101; original CH101 (parental, fully murine)) VH: EVQLEESGPDLVKPSQSLSLTCTVTGYSITSGFAWHWLRQFPGNRLEWMGYIHYSGSTNYNPSLKSRISITRDTSKNQFFLQLNSVTTEDTATFYCARSDFWGQGTFVTVSS VL: DVVMTQTPLNLSVTFGQPVSISCTSSQSLLDRDGETFMNWLFQRPGQSPKRLIYLVSKLDFGVPDRFTGSGSGTDFTLKISRVEAEDLGIYYCWQGTHFPLTFGGGTKLEIK",–,59.2%,–
"anti-Δ42PD1 antibody CH34 (antibody, mouse IgG2b, kappa, V domains shown, Murine monoclonal antibody (msIgG2b isotype control used beside it); both are entered as this one molecule; also called murine CH34; mouse CH34 mAb) VH: EVKLVESGGGLVQPGGSRKLSCAASGFTFSDYGMAWVRQAPGKGPEWVAFISSLAYTIYYADTVTGRFTISRENAKNTLYLEMSSLRSEDTAMYYCARGGAGFAYWGQGTLVTVSA VL: DIQMTQSSSYLSVSLGGRVTITCKASDHINNWLAWYQQKPGNAPRLLISGATSLETGVPSRFSGSGSGKDYTLSITSLQTEDVATYYCQQYWSTPWTFGGGTKLEIKR",–,–,binding result (PD-1-GFP): no binding; binding result (PD1): no binding
"hufrCH101-IgG1 (antibody, 97.0% humanized CH101 (641/661) by CDR grafting, human IgG1; also called huCH101-IgG1; huCH101) heavy: not shown light: DVVMTQSPLSLPVTLGQPASISCTSSQSLLDRDGETFMNWFQQRPGQSPRRLIYLVSKLDFGVPDRFSGSGSGTDFTLKISRVEAEDVGVYYCWQGTHFPLTFGGGTKVEIKRTVAAPSVFIFPPSDEQLKSGTASVVCLLNNFYPREAKVQWKVDNALQSGNSQESVTEQDSKDSTYSLSSTLTLSKADYEKHKVYACEVTHQGLSSPVTKSFNRGEC",–,45.5%,–

# Reference: patent US20250002581A1 (VERSITECH, published 2025)
